Experiment [1] addresses HLA-A*24:03. Briefly: IEDB peptide-MHC binding, purified MHC/competitive/fluorescence; filed as Kd, often an IC50 or EC50 that approximates it; ≥ and ≤ were set here for values at or beyond the usual limits of such assays. The note with it: source organism: Escherichia coli str. K-12 substr. MG1655.
In experiment [2] the target is HLA-A*01:01. The experiment in a line: IEDB peptide-MHC binding, purified MHC/direct/fluorescence; filed as Kd, often an IC50 or EC50 that approximates it; ≥ and ≤ were set here for values at or beyond the usual limits of such assays.
In experiment [3] the target is HLA-A*68:02. Described as above.
Experiment [4] deals with HLA-B*27:03. Briefly: IEDB peptide-MHC binding, purified MHC/competitive/fluorescence; filed as Kd, often an IC50 or EC50 that approximates it; ≥ and ≤ were set here for values at or beyond the usual limits of such assays.
The target in experiment [5] is HLA-B*39:01. Described as above.
Experiment [6] concerns the target HLA-A*69:01. Described as above. The note with it: source organism: Orthohantavirus tulaense.
Experiment [7] deals with HLA-B*15:17. The experiment is described as above.
Experiment [8] addresses HLA-B*51:01. The experiment is described as above.
In experiment [9] the target is HLA-A*26:01. The description is as above.
The target in experiment [10] is HLA-B*57:01. The experiment is described as above. The note with it: source organism: Orthohantavirus tulaense.
The target of experiment [11] is HLA-B*46:01. Described as above. The note with it: source organism: Orthohantavirus tulaense.
The target of experiment [12] is HLA-A*03:01. Described as above. The note with it: source organism: Orthohantavirus tulaense.
The target of experiment [13] is HLA-B*15:03. The experiment in a line: IEDB peptide-MHC binding, purified MHC/competitive/radioactivity; filed as Kd, often an IC50 or EC50 that approximates it; ≥ and ≤ were set here for values at or beyond the usual limits of such assays.
Experiment [14] deals with HLA-B*15:01. The description is as above.
In experiment [15] the target is HLA-A*30:01. The experiment is described as above.
Experiment [16] has as its target HLA-A*32:01. The description is as above.
The target of experiment [17] is HLA-B*08:01. Described as above.
Experiment [18] has as its target HLA-A*68:01. The description is as above. The note with it: source organism: Vaccinia virus WR.
Experiment [19] has as its target HLA-A*33:01. Described as above. The note with it: source organism: Vaccinia virus WR.
Experiment [20] has as its target HLA-A*11:01. The experiment is described as above. The note with it: source organism: Vaccinia virus WR.
In experiment [21] the target is HLA-A*31:01. Described as above. The note with it: source organism: Vaccinia virus WR.
In experiment [22] the target is HLA-A*03:01. Described as above. The note with it: source organism: Vaccinia virus WR.
In experiment [23] the target is HLA-B*27:05. Briefly: IEDB peptide-MHC binding, purified MHC/direct/fluorescence; filed as Kd, often an IC50 or EC50 that approximates it; ≥ and ≤ were set here for values at or beyond the usual limits of such assays. The note with it: source organism: Orthohantavirus seoulense.
The target in experiment [24] is HLA-B*58:01. The description is as above. The note with it: source organism: Orthohantavirus seoulense.
Experiment [25] addresses HLA-B*18:01. Described as above. The note with it: source organism: Orthohantavirus seoulense.
Experiment [26] deals with HLA-B*48:01. Described as above. The note with it: source organism: Orthohantavirus seoulense.
In experiment [27] the target is HLA-A*69:01. The experiment is described as above. The note with it: source organism: Orthohantavirus seoulense.
The target of experiment [28] is HLA-B*40:01. The description is as above. The note with it: source organism: Orthohantavirus seoulense.
The target in experiment [29] is HLA-B*44:02. Described as above. The note with it: source organism: Orthohantavirus seoulense.
In experiment [30] the target is HLA-B*57:01. Described as above. The note with it: source organism: Orthohantavirus seoulense.
Experiment [31] has as its target HLA-A*11:01. The experiment is described as above. The note with it: source organism: Orthohantavirus seoulense.
Experiment [32] has as its target HLA-A*31:01. The description is as above. The note with it: source organism: Orthohantavirus seoulense.
The target in experiment [33] is HLA-B*07:02. The experiment is described as above. The note with it: source organism: Orthohantavirus seoulense.
Experiment [34] deals with HLA-A*02:12. Described as above. The note with it: source organism: Limestone Canyon virus.
Experiment [35] deals with HLA-B*08:01. The experiment is described as above. The note with it: source organism: Orthohantavirus seoulense.
Experiment [36] concerns the target HLA-B*46:01. The description is as above. The note with it: source organism: Orthohantavirus seoulense.
Experiment [37] addresses HLA-A*02:01. The description is as above. The note with it: source organism: Orthohantavirus seoulense.
Experiment [38] has as its target HLA-A*03:01. Described as above. The note with it: source organism: Orthohantavirus seoulense.
Experiment [39] concerns the target HLA-B*15:01. The experiment is described as above. The note with it: source organism: Orthohantavirus seoulense.
The mark [40] stands for this setting: source organism: Orthohantavirus tulaense.
Where [41] appears, read: source organism: Vaccinia virus Copenhagen.
Setting [42] is: source organism: Vaccinia virus WR.
The mark [43] stands for this setting: source organism: Orthohantavirus seoulense.

What is called Kd is the constant that tells how readily two partners part at equilibrium.

Regarding AWQRTLKWF, in experiment [1], the Kd was found to be 0.11 µM.
Regarding FMSRKLHRY, the Kd in experiment [2] (source organism: Orthohantavirus negraense) was 0.0095 µM; in experiment [3] (setting [40]), at least 20 µM; in experiment [4] (setting [40]) it was at least 20 µM; in experiment [5] (setting [40]) it was at least 20 µM; in experiment [6], at least 20 µM; in experiment [7] (setting [40]), at least 20 µM. The Kd in experiment [8] (setting [40]) is at least 20 µM; in experiment [9] (setting [40]), at least 20 µM; in experiment [10] it was at least 20 µM; in experiment [11], at least 20 µM; in [12], 8 µM.
Take FSIYSVSCF: the Kd in [13] (setting [41]) amounted to 7.64 nM; in [14] (setting [41]), 0.0031 µM.
FSNFSTSHI: the Kd amounted to 7.5 µM in experiment [15] (setting [42]); 510 nM in experiment [13] (setting [42]); 18.4 µM in experiment [16] (setting [42]); 3.11 µM in experiment [17] (setting [42]); 0.11 µM in experiment [14] (setting [42]).
Take ISWMMKLGI: the Kd in [15] (setting [42]) was 6.58 µM; in experiment [13] (setting [42]), 404 nM; in experiment [16] (setting [42]), 0.0421 µM; in [17] (setting [42]) it was 4.84 µM; in [14] (setting [42]) it was 0.546 µM.
Consider KAFNHASVK, for which the dissociation constant Kd in experiment [15] (setting [42]) was 0.0347 µM; in experiment [18], 0.0176 µM; in [13] (setting [42]) it was 282 nM; in experiment [19], at least 47.7 µM; in experiment [16] (setting [42]), 3.64 µM; in experiment [20] it was 0.00931 µM. The Kd in experiment [21] amounted to 0.0297 µM; in [17] (setting [42]), 0.751 µM; in experiment [22] it was 0.00613 µM; in experiment [14] (setting [42]), 0.462 µM.
In the case of KPKHLYVSM, the Kd in experiment [23], in experiment [24], in experiment [2] (setting [43]), in [25], in [26] and in experiment [27] was at least 20 µM throughout. The Kd in experiment [28] is at least 20 µM; in experiment [29], at least 20 µM; in [30], at least 20 µM; in experiment [31] it was at least 20 µM; in experiment [32] it was at least 20 µM; in experiment [33], 0.0844 µM. Further, the Kd in experiment [3] (source organism: Limestone Canyon virus) is at least 20 µM; in [34], at least 20 µM; in experiment [35], 0.254 µM; in experiment [36] it was at least 20 µM; in experiment [37], at least 20 µM; in experiment [38] it was at least 20 µM. Besides, the Kd in [39], in experiment [4] (setting [43]), in [5] (setting [43]), in [7] (setting [43]), in experiment [8] (setting [43]) and in experiment [9] (setting [43]) was at least 20 µM throughout.
With KTMAVTYEL, the Kd was 10.9 µM in experiment [15] (setting [41]); 34.5 nM in [13] (setting [41]); 0.000578 µM in experiment [16] (setting [41]); 0.0187 µM in [17] (setting [41]); 0.00551 µM in experiment [14] (setting [41]).
As to LMYILGTYG, the Kd is 3.75 µM in [15] (setting [42]); 125 nM in experiment [13] (setting [42]); at least 23.3 µM in [16] (setting [42]); 0.951 µM in [17] (setting [42]); 0.062 µM in [14] (setting [42]).
Consider LSTTRFQSM, for which the Kd was found to be 1.08 µM in [15] (setting [42]); 2500 nM in [13] (setting [42]); 9.77 µM in experiment [16] (setting [42]); 3.97 µM in experiment [17] (setting [42]); 5.82 µM in experiment [14] (setting [42]).
As for RQYMFYKIF, the Kd in experiment [13] (setting [41]) turned out to be 0.0698 nM; in experiment [16] (setting [41]) it was 0.0193 µM.

For the origin of these results see the Immune Epitope Database (IEDB).
